The target in test [1] is HLA-B*40:01. Put plainly: IEDB peptide-MHC binding, purified MHC/competitive/fluorescence; filed as Kd, often an IC50 or EC50 that approximates it; ≥ and ≤ were set here for values at or beyond the usual limits of such assays.
The target of test [2] is HLA-A*69:01. Described as above.
The target of test [3] is HLA-A*03:01. The test is described as above.
Test [4] addresses HLA-B*45:06. The test is described as above. The following applies: source organism: Burkholderia pseudomallei 668.
Test [5] deals with HLA-A*29:02. The description is as above. The settings on record: source organism: Burkholderia pseudomallei 668.
The target in test [6] is HLA-A*02:01. The description is as above.
For test [7], the target named is HLA-B*27:03. The description is as above.
The target in test [8] is HLA-B*39:01. The description is as above. The settings on record: source organism: Burkholderia pseudomallei 668.
The target of test [9] is HLA-B*46:01. The description is as above.
In test [10] the target is HLA-B*57:01. Described as above.
The target in test [11] is HLA-A*26:01. The test is described as above.
In test [12] the target is HLA-A*02:11. The test is described as above.
The target of test [13] is HLA-B*18:01. The description is as above.
Test [14] deals with HLA-A*68:02. The description is as above. The following applies: source organism: Burkholderia pseudomallei 668.
The target in test [15] is HLA-B*15:17. Described as above.
Test [16] concerns the target HLA-A*24:03. Described as above.
Test [17] has as its target HLA-B*51:01. The test is described as above. The following applies: source organism: Burkholderia pseudomallei 668.
Test [18] addresses HLA-A*23:01. The test is described as above.
The target in test [19] is HLA-B*83:01. The description is as above. The settings on record: source organism: Burkholderia pseudomallei 668.
In test [20] the target is HLA-B*15:42. The test is described as above. The following applies: source organism: Burkholderia pseudomallei 668.
Test [21] concerns the target HLA-B*44:02. Described as above. The settings on record: source organism: Escherichia coli O139:H28 str. E24377A.
For test [22], the target named is HLA-B*15:01. Briefly: IEDB peptide-MHC binding, purified MHC/direct/fluorescence; filed as Kd, often an IC50 or EC50 that approximates it; ≥ and ≤ were set here for values at or beyond the usual limits of such assays.
The target in test [23] is HLA-B*58:01. The description is as above.
The target in test [24] is HLA-A*02:16. Put plainly: IEDB peptide-MHC binding, purified MHC/competitive/fluorescence; filed as Kd, often an IC50 or EC50 that approximates it; ≥ and ≤ were set here for values at or beyond the usual limits of such assays.
The target of test [25] is HLA-B*15:01. The test is described as above. The settings on record: source organism: Vibrio vulnificus CMCP6.
Test [26] concerns the target HLA-A*02:19. The description is as above. The following applies: source organism: Human immunodeficiency virus 1.
The target in test [27] is HLA-A*02:03. The description is as above.
The target of test [28] is HLA-A*02:50. The description is as above. The settings on record: source organism: Pasteurella multocida subsp. multocida str. Pm70.
Test [29] has as its target HLA-A*02:12. The description is as above.
Test [30] deals with HLA-A*02:06. The test is described as above.
Test [31] deals with HLA-A*31:01. Put plainly: IEDB peptide-MHC binding, purified MHC/direct/fluorescence; filed as Kd, often an IC50 or EC50 that approximates it; ≥ and ≤ were set here for values at or beyond the usual limits of such assays. The settings on record: source organism: Pasteurella multocida.
The target of test [32] is HLA-A*69:01. Described as above. The settings on record: source organism: Pasteurella multocida.
Test [33] has as its target HLA-A*03:01. Described as above. The following applies: source organism: Pasteurella multocida.
For test [34], the target named is HLA-A*02:01. The description is as above. The settings on record: source organism: Pasteurella multocida.
Test [35] has as its target HLA-B*27:05. Described as above. The following applies: source organism: Pasteurella multocida.
Test [36] has as its target HLA-A*26:01. The description is as above. The following applies: source organism: Pasteurella multocida.
Test [37] addresses HLA-B*08:01. The description is as above. The following applies: source organism: Pasteurella multocida.
Test [38] has as its target HLA-A*11:01. The description is as above. The settings on record: source organism: Pasteurella multocida.
For test [39], the target named is HLA-A*01:01. The test is described as above. The settings on record: source organism: Pasteurella multocida.
Test [40] concerns the target HLA-B*07:02. The test is described as above. The following applies: source organism: Pasteurella multocida.
The target of test [41] is HLA-A*24:03. The test is described as above. The following applies: source organism: Pasteurella multocida.
For test [42], the target named is HLA-B*40:01. The test is described as above. The settings on record: source organism: Pasteurella multocida.
The mark [43] stands for this setting: source organism: Burkholderia pseudomallei 668.
Setting [44] is: source organism: Escherichia coli O139:H28 str. E24377A.
Setting [45] is: source organism: Escherichia coli.
Setting [46] is: source organism: Vibrio vulnificus CMCP6.
Where [47] appears, read: source organism: Human immunodeficiency virus 1.
[48] abbreviates: source organism: Pasteurella multocida subsp. multocida str. Pm70.
The mark [49] stands for this setting: source organism: Pasteurella multocida.

A word on the Kd: it is the free concentration of one partner at which half of the binding sites on the other are occupied at equilibrium, for simple one-to-one binding. Read a high Kd as lower affinity.

In the case of IEDKNLYMF, in [1] (source organism: Bacillus mycoides KBAB4), the Kd came out at 12.7 nM.
Regarding ILFDRLPIA, the Kd in test [2] (setting [43]) was ≥ 20000 nM; in test [3] (setting [43]) it was ≥ 20000 nM; in test [4], ≥ 5000 nM; in test [5], ≥ 20000 nM; in test [6] (setting [43]) it was ≤ 0.1 nM; in test [7] (setting [43]), ≥ 20000 nM. Also, the Kd was ≥ 20000 nM in test [8]; ≥ 20000 nM in test [9] (setting [43]); ≥ 20000 nM in test [10] (setting [43]); ≥ 20000 nM in test [11] (setting [43]); ≤ 0.1 nM in [12] (setting [43]); ≥ 20000 nM in [13] (setting [43]). In addition, the Kd in test [14] was ≥ 20000 nM; in test [15] (setting [43]), ≥ 20000 nM; in [16] (setting [43]) it was ≥ 20000 nM; in test [17] it was ≥ 20000 nM; in [18] (setting [43]) it was ≥ 20000 nM; in test [19] it was ≥ 5000 nM. The Kd in [20] is 970 nM.
Sequence WEKAWPAVF yielded a Kd in [1] (source organism: Escherichia coli O157:H7 str. EDL933) of 96 nM.
On to WSILRQRCW, for which the Kd in test [21] was ≥ 20000 nM; in test [10] (setting [44]), 108 nM; in test [15] (setting [44]), 5.2 nM; in test [22] (setting [45]) it was 93.4 nM; in test [23] (setting [45]) it was 52.1 nM.
For FGAQMGWPV, the Kd was ≥ 20000 nM in [3] (setting [46]); 4.8 nM in test [6] (setting [46]); ≥ 20000 nM in test [7] (setting [46]); ≥ 20000 nM in test [9] (setting [46]); ≥ 20000 nM in test [10] (setting [46]); ≥ 20000 nM in test [11] (setting [46]). Moreover, the Kd is ≥ 20000 nM in test [13] (setting [46]); 6.2 nM in [24] (setting [46]); ≥ 20000 nM in test [16] (setting [46]); ≥ 20000 nM in test [25]; ≥ 20000 nM in test [18] (setting [46]).
Consider HLADQLIHQ, for which the Kd in test [2] (setting [47]) was ≥ 20000 nM; in test [26], ≥ 20000 nM; in [6] (setting [47]), 6590 nM; in test [27] (setting [47]) it was 311 nM; in test [12] (setting [47]), 101 nM.
As to LLKDLMPFV, the Kd in [28] is ≤ 0.1 nM; in [29] (setting [48]), ≤ 0.1 nM; in [30] (setting [48]), ≤ 0.1 nM; in [27] (setting [48]), ≤ 0.1 nM; in test [12] (setting [48]), ≤ 0.1 nM; in test [31] it was 1460 nM. In addition, the Kd in test [32] was 162 nM; in [33], ≥ 20000 nM; in [34] it was 51 nM; in test [35], ≥ 20000 nM; in test [36], 13.1 nM; in test [37] it was ≥ 20000 nM. Also, the Kd in test [38] is ≥ 20000 nM; in [39], ≥ 20000 nM; in test [40], ≥ 20000 nM; in [41], ≥ 20000 nM; in [22] (setting [49]), 9230 nM; in test [42], ≥ 20000 nM. For the same sequence, the Kd in test [23] (setting [49]) is ≥ 20000 nM.
For the sequence FLGKIWPS, the Kd in [2] (setting [47]) was 2760 nM; in test [29] (setting [47]), ≤ 0.1 nM; in [26] it was 0.4 nM; in test [6] (setting [47]) it was 3.25 nM; in test [30] (setting [47]), ≤ 0.1 nM; in test [27] (setting [47]), ≤ 0.1 nM. Also, the Kd in test [12] (setting [47]) and in [24] (setting [47]) was ≤ 0.1 nM throughout.

For the origin of these results see the Immune Epitope Database (IEDB).
